Laboratory results as given in US20220281931.

Target: Strep II-Avi BCL6^5-360

B1: Flag-SIAH1^FL (protein)
chain: MSRQTATALPTGTSKCPPSQRVPALTGTTASNNDLASLFECPVCFDYVLPPILQCQSGHLVCSNCRPKLTCCPTCRGPLGSIRNLAMEKVANSVLFPCKYASSGCEITLPHTEKADHEELCEFRPYSCPCPGASCKWQGSLDAVMPHLMHQHKSITTLQGEDIVFLATDINLPGAVDWVMMQSCFGFHFMLVLEKQEKYDGHQQFFAIVQLIGTRKQAENFAYRLELNGHRRRLTWEATPRSIHEGIATAIMNSDCLVFDTSIAQLFAENGNLGINVTISMC
**Q.** For B1, which “in vitro ubiquitination (western blot, Strep tag II antibody)” value is on record?
**A.** The value was “BCL6 is a substrate for SIAH1 (FIG. 10D), and that the rate and magnitude of ubiquitination is accelerated by BI-3802 (FIG. 4B)”.
